Here are results for one molecule from PMC2174252 (The Journal of Cell Biology, 1999).

For this assay, the target named is mouse ZO-1 expressed in Sf21 insect cells (mouse, UniProt P39447 1-1745). Nature of the assay: pull-down.
Chain of mouse ZO-1 expressed in Sf21 insect cells (P39447 whole entry): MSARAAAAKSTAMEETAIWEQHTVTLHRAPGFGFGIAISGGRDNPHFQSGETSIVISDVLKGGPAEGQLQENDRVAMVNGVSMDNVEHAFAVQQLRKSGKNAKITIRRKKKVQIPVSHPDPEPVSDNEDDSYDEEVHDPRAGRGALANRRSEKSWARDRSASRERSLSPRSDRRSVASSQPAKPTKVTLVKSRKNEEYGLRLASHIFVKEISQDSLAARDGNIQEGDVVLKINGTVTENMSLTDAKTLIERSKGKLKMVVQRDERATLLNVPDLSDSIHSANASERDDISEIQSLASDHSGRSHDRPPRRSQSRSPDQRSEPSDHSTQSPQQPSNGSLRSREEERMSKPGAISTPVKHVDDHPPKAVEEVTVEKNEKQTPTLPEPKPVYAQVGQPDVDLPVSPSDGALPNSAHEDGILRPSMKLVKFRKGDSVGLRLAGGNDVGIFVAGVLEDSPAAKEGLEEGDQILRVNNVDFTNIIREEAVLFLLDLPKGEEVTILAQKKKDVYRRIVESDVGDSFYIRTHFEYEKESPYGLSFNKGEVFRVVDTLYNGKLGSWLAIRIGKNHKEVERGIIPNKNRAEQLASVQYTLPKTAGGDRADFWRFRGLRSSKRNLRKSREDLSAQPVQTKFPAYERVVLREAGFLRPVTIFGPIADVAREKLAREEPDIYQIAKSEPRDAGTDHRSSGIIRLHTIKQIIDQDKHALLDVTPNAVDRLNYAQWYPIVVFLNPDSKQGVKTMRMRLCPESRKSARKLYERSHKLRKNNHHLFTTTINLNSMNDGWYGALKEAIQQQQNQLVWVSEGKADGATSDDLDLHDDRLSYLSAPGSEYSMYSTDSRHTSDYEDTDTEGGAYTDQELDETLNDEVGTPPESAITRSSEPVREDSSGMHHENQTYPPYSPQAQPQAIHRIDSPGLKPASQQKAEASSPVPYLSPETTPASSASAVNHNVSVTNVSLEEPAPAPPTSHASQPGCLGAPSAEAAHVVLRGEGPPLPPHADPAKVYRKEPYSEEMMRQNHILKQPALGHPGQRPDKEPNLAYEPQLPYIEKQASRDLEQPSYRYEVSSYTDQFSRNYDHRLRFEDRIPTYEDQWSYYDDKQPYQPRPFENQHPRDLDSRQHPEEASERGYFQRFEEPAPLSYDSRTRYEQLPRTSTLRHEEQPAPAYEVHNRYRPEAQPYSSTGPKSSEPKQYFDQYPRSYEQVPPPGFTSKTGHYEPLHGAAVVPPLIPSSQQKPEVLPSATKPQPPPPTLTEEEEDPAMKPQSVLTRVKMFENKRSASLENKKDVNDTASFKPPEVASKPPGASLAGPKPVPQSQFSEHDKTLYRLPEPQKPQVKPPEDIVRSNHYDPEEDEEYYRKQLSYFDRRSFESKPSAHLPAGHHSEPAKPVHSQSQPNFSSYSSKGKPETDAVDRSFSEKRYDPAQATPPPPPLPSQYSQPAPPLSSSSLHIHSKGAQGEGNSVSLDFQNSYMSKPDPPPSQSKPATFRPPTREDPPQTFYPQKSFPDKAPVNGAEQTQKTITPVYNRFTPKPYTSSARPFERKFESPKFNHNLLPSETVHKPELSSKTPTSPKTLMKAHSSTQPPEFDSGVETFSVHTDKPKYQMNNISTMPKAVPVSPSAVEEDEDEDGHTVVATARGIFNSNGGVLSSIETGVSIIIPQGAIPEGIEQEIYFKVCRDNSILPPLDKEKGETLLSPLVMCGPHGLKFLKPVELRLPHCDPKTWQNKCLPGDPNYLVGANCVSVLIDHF

B1: GST-XC(1-378), GST fused to Xenopus laevis cingulin residues 1-378 (domain or fragment, UniProt Q9PTD7 1-378, looked up)
chain: MERDIYGDMADQHIPVGQGVQIRFIGDLKENGKPRGKRSKQDSYGVAVRVQGIDGQPFVVLNSGDKAKSSFGVQIKSQEPYLNASNTSPPNYQNYSSKPRGPSRSISSESELPENPYGSRGYRPSSSHYSSASDEEQKPRGNIRGSDGLSSLPRPLQASRREELRRSQSHSSLLEPDVEESYDYDHHYSERSSTLDTTYSQSSRDSAWSRSSQKKIDNGDYPSLGYRSATSQQSTSVSNKTKKNGLSTSSPSNQSNEDIDTKPLSSVDSLINKFDIKGQVRGRTARRSQALKDERKRSQSLDGRKNYHDTADSREIIVEKQNEVQTMREPVNASNRSFNRQTLERGDISKTRLTKEWLDQDREEPVILKQQRTVQSEF
A word on the Kd: it is a measure of binding affinity in units of concentration. High values mean weaker binding, low ones tighter binding. For the molecule B1, the Kd is approximately 5 nM.
